The values that follow come from the supplement of paper PMC5998384.

Data set [1] has as its system HeLa Kyoto. The experiment in a line: solubility in G1/S (NP-40 vs SDS abundance) (log2 ratio); higher = more soluble. The conditions noted are these: cell cycle stage: G1/S.
Data set [2] has as its system HeLa Kyoto. The experiment in a line: melting temperature (median over replicates), in situ; higher = more thermally stable.
Data set [3] concerns HeLa Kyoto. The experiment in a line: solubility change mitosis vs G1/S (difference of NP-40 vs SDS log2 ratios) (log2 ratio difference); higher = more soluble in mitosis.
For data set [4], the system named is HeLa Kyoto. Description: thermal stability score vs G1/S (z-score of summed log2 fold changes over temperatures); higher = more thermally stable than in G1/S.
Where [5] appears, read: cell cycle stage: early G1 (4.5 h after nocodazole release).
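Wherever melting temperature (median over replicates), in situ is given: HeLa Kyoto cells synchronized by double thymidine or nocodazole block, proteins quantified by TMT10plex mass spectrometry, three independent biological replicates.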
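Wherever solubility change mitosis vs G1/S (difference of NP-40 vs SDS log2 ratios) is given: synchronized HeLa Kyoto cells (double thymidine block for G1/S, nocodazole release for mitosis), protein amounts in NP-40 versus SDS lysates quantified by mass spectrometry, three biological replicates.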
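Wherever solubility in G1/S (NP-40 vs SDS abundance) is given: HeLa Kyoto cells arrested at G1/S by double thymidine block, proteins quantified by TMT10plex mass spectrometry in mild NP-40 versus SDS extracts, three biological replicates.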
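Wherever thermal stability score vs G1/S (z-score of summed log2 fold changes over temperatures) is given: synchronized HeLa Kyoto cells, proteins quantified by TMT10plex mass spectrometry, three biological replicates, mitosis taken 0.5 h after nocodazole release, G1/S directly after double thymidine block.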

Regarding “MATGANATPLDFPSKKRKRSRWNQDTMEQKTVIPGMPTVIPPGLTREQERAYIVQLQIEDLTRKLRTGDLGIPPNPEDRSPSPEPIYNSEGKRLNTREFRTRKKLEEERHNLITEMVALNPDFKPPADYKPPATRVSDKVMIPQDEYPEINFVGLLIGPRGNTLKNIEKECNAKIMIRGKGSVKEGKVGRKDGQMLPGEDEPLHALVTANTMENVKKAVEQIRNILKQGIETPEDQNDLRKMQLRELARLNGTLREDDNRILRPWQSSETRSITNTTVCTKCGGAGHIASDCKFQRPGDPQSAQDKARMDKEYLSLMAELGEAPVPASVGSTSGPATTPLASAPRPAAPANNPPPPSLMSTTQSRPPWMNSGPSESRPYHGMHGGGPGGPGGGPHSFPHPLPSLTGGHGGHPMQHNPNGPPPPWMQPPPPPMNQGPHPPGHHGPPPMDQYLGSTPVGSGVYRLHQGKGMMPPPPMGMMPPPPPPPSGQPPPPPSGPLPPWQQQQQQPPPPPPPSSSMASSTPLPWQQNTTTTTTSAGTGSIPPWQQQQAAAAASPGAPQMQGNPTMVPLPPGVQPPLPPGAPPPPPPPPPGSAGMMYAPPPPPPPPMDPSNFVTMMGMGVAGMPPFGMPPAPPPPPPQN [SF1]”, in the data set on HeLa Kyoto [1], the “solubility in G1/S (log2)” value amounted to 0.255. This sequence also gave a melting temperature in the data set with HeLa Kyoto [2] (cell cycle stage: G1/S) of 53.4 °C. In the data set on HeLa Kyoto [3], the “solubility change mitosis (log2)” value was 0.135. In addition, the thermal stability score in the data set with HeLa Kyoto [4] (setting [5]) is -4.58; in the data set on HeLa Kyoto [4] (cell cycle stage: mitosis), -1.85.

“MATGLGEPVYGLSEDEGESRILRVKVVSGIDLAKKDIFGASDPYVKLSLYVADENRELALVQTKTIKKTLNPKWNEEFYFRVNPSNHRLLFEVFDENRLTRDDFLGQVDVPLSHLPTEDPTMERPYTFKDFLLRPRSHKSRVKGFLRLKMAYMPKNGGQDEENSDQRDDMEHGWEVVDSNDSASQHQEELPPPPLPPGWEEKVDNLGRTYYVNHNNRTTQWHRPSLMDVSSESDNNIRQINQEAAHRRFRSRRHISEDLEPEPSEGGDVPEPWETISEEVNIAGDSLGLALPPPPASPGSRTSPQELSEELSRRLQITPDSNGEQFSSLIQREPSSRLRSCSVTDAVAEQGHLPPPSAPAGRARSSTVTGGEEPTPSVAYVHTTPGLPSGWEERKDAKGRTYYVNHNNRTTTWTRPIMQLAEDGASGSATNSNNHLIEPQIRRPRSLSSPTVTLSAPLEGAKDSPVRRAVKDTLSNPQSPQPSPYNSPKPQHKVTQSFLPPGWEMRIAPNGRPFFIDHNTKTTTWEDPRLKFPVHMRSKTSLNPNDLGPLPPGWEERIHLDGRTFYIDHNSKITQWEDPRLQNPAITGPAVPYSREFKQKYDYFRKKLKKPADIPNRFEMKLHRNNIFEESYRRIMSVKRPDVLKARLWIEFESEKGLDYGGVAREWFFLLSKEMFNPYYGLFEYSATDNYTLQINPNSGLCNEDHLSYFTFIGRVAGLAVFHGKLLDGFFIRPFYKMMLGKQITLNDMESVDSEYYNSLKWILENDPTELDLMFCIDEENFGQTYQVDLKPNGSEIMVTNENKREYIDLVIQWRFVNRVQKQMNAFLEGFTELLPIDLIKIFDENELELLMCGLGDVDVNDWRQHSIYKNGYCPNHPVIQWFWKAVLLMDAEKRIRLLQFVTGTSRVPMNGFAELYGSNGPQLFTIEQWGSPEKLPRAHTCFNRLDLPPYETFEDLREKLLMAVENAQGFEGVD [NEDD4L]”: the “solubility in G1/S (log2)” value in the data set with HeLa Kyoto [1] is -0.0714. In addition, the melting temperature with HeLa Kyoto [2] (cell cycle stage: G1/S) came out at 50 °C; in the data set on HeLa Kyoto [2] (cell cycle stage: mitosis), 49.6 °C. Besides, the “solubility change mitosis (log2)” value with HeLa Kyoto [3] was -0.189. Also, the thermal stability score amounted to 0.949 in the data set on HeLa Kyoto [4] (setting [5]) and 2.33 in the data set with HeLa Kyoto [4] (cell cycle stage: mitosis).

In the case of “MATIPDWKLQLLARRRQEEASVRGREKAERERLSQMPAWKRGLLERRRAKLGLSPGEPSPVLGTVEAGPPDPDESAVLLEAIGPVHQNRFIRQERQQQQQQQQRSEELLAERKPGPLEARERRPSPGEMRDQSPKGRESREERLSPRETRERRLGIGGAQELSLRPLEARDWRQSPGEVGDRSSRLSEAWKWRLSPGETPERSLRLAESREQSPRRKEVESRLSPGESAYQKLGLTEAHKWRPDSRESQEQSLVQLEATEWRLRSGEERQDYSEECGRKEEWPVPGVAPKETAELSETLTREAQGNSSAGVEAAEQRPVEDGERGMKPTEGWKWTLNSGKAREWTPRDIEAQTQKPEPPESAEKLLESPGVEAGEGEAEKEEAGAQGRPLRALQNCCSVPSPLPPEDAGTGGLRQQEEEAVELQPPPPAPLSPPPPAPTAPQPPGDPLMSRLFYGVKAGPGVGAPRRSGHTFTVNPRRSVPPATPATPTSPATVDAAVPGAGKKRYPTAEEILVLGGYLRLSRSCLAKGSPERHHKQLKISFSETALETTYQYPSESSVLEELGPEPEVPSAPNPPAAQPDDEEDEEELLLLQPELQGGLRTKALIVDESCRR [PPP1R18]”, the “solubility in G1/S (log2)” value in the data set on HeLa Kyoto [1] is -0.53. Further, the melting temperature was 52.5 °C in the data set on HeLa Kyoto [2] (cell cycle stage: G1/S) and 52 °C in the data set with HeLa Kyoto [2] (cell cycle stage: mitosis). For the same sequence, in the data set with HeLa Kyoto [3], the “solubility change mitosis (log2)” value amounted to 0.428. Further, the thermal stability score in the data set on HeLa Kyoto [4] (setting [5]) is 0.778; in the data set on HeLa Kyoto [4] (cell cycle stage: mitosis), 0.67.

Take “MATLRRLREAPRHLLVCEKSNFGNHKSRHRHLVQTHYYNYRVSFLIPECGILSEELKNLVMNTGPYYFVKNLPLHELITPEFISTFIKKGSCYALTYNTHIDEDNTVALLPNGKLILSLDKDTYEETGLQGHPSQFSGRKIMKFIVSIDLMELSLNLDSKKYERISWSFKEKKPLKFDFLLAWHKTGSEESTMMSYFSKYQIQEHQPKVALSTLRDLQCPVLQSSELEGTPEVSCRALELFDWLGAVFSNVDLNNEPNNFISTYCCPEPSTVVAKAYLCTITGFILPEKICLLLEHLCHYFDEPKLAPWVTLSVQGFADSPVSWEKNEHGFRKGGEHLYNFVIFNNQDYWLQMAVGANDHCPP [RPP40]”: in the data set on HeLa Kyoto [1], the “solubility in G1/S (log2)” value is -0.386. In addition, the melting temperature worked out at 55.5 °C in the data set with HeLa Kyoto [2] (cell cycle stage: G1/S) and 56.5 °C in the data set on HeLa Kyoto [2] (cell cycle stage: mitosis). Also, in the data set with HeLa Kyoto [3], the “solubility change mitosis (log2)” value is -0.00249. The thermal stability score in the data set with HeLa Kyoto [4] (setting [5]) is -1.89; with HeLa Kyoto [4] (cell cycle stage: mitosis), -4.46.

Turning to “MATPVVTKTAWKLQEIVAHASNVSSLVLGKASGRLLATGGDDCRVNLWSINKPNCIMSLTGHTSPVESVRLNTPEELIVAGSQSGSIRVWDLEAAKILRTLMGHKANICSLDFHPYGEFVASGSQDTNIKLWDIRRKGCVFRYRGHSQAVRCLRFSPDGKWLASAADDHTVKLWDLTAGKMMSEFPGHTGPVNVVEFHPNEYLLASGSSDRTIRFWDLEKFQVVSCIEGEPGPVRSVLFNPDGCCLYSGCQDSLRVYGWEPERCFDVVLVNWGKVADLAICNDQLIGVAFSQSNVSSYVVDLTRVTRTGTVARDPVQDHRPLAQPLPNPSAPLRRIYERPSTTCSKPQRVKQNSESERRSPSSEDDRDERESRAEIQNAEDYNEIFQPKNSISRTPPRRSEPFPAPPEDDAATAKEAAKPSPAMDVQFPVPNLEVLPRPPVVASTPAPKAEPAIIPATRNEPIGLKASDFLPAVKIPQQAELVDEDAMSQIRKGHDTMCVVLTSRHKNLDTVRAVWTMGDIKTSVDSAVAINDLSVVVDLLNIVNQKASLWKLDLCTTVLPQIEKLLQSKYESYVQTGCTSLKLILQRFLPLITDMLAAPPSVGVDISREERLHKCRLCYKQLKSISGLVKSKSGLSGRHGSTFRELHLLMASLD [KATNB1]”, the “solubility in G1/S (log2)” value in the data set with HeLa Kyoto [1] is -0.135. Besides, the values for the melting temperature with HeLa Kyoto [2] (cell cycle stage: G1/S) and in the data set with HeLa Kyoto [2] (cell cycle stage: mitosis) were 50.5 °C and 51 °C, respectively. Besides, the “solubility change mitosis (log2)” value in the data set on HeLa Kyoto [3] was -0.0538. Moreover, the thermal stability score in the data set on HeLa Kyoto [4] (setting [5]) came to 0.62; with HeLa Kyoto [4] (cell cycle stage: mitosis), 0.499.
